The values that follow are results of earlier work, collected in article PMC10605242.

For orientation: Kd means the concentration at which binding is half-saturated.

The target of data set [1] is C4b dimer (B isoform) (Homo sapiens) (UniProt P0C0L5).
In data set [2] the target is C4b dimer (A isoform) (Homo sapiens) (UniProt P0C0L4).
Another data set deals with C4b (Homo sapiens) (UniProt P0C0L4).

For CR1 (from UniProt P17927), the Kd in data set [1] is 445 nM; in data set [2] it was 130 nM. Take CR1 SCR15-18 (from UniProt P17927): the Kd with C4b (Homo sapiens) was 1200 nM.
